The values below come from patent US11090383 (CENTRE FOR DRUG RESEARCH AND DEVELOPMENT, dated 2021).

Test [1] concerns the target WT Podocalyxin (on normal cells and tissues) (human) (UniProt O00592). In words: flow cytometry, live 293 cells.
Test [2] shares this target. In words: flow cytometry, live HUVEC cells. A general note: In flow cytometry, cells or beads pass a laser one at a time.
The next test deals with cPodo/CHO. In words: flow cytometry, live cPodo/CHO cells; Mock/CHO with this antibody: 2%.
The target of test [3] is T1, human podocalyxin as displayed on tumor cells (A172, SKOV3, MIA PaCa-2, MDA-MB-231, OVCAR10) (human, UniProt O00592 23-558, post-translational glycan recognised by Podo447 (O-linked, with beta-GalNAc that may be terminal; site not stated)).
T1 construct: Endogenous podocalyxin of tumor cell lines, on cells, in lysates or in cryosections; also called tumor-associated Podocalyxin
T1 chain: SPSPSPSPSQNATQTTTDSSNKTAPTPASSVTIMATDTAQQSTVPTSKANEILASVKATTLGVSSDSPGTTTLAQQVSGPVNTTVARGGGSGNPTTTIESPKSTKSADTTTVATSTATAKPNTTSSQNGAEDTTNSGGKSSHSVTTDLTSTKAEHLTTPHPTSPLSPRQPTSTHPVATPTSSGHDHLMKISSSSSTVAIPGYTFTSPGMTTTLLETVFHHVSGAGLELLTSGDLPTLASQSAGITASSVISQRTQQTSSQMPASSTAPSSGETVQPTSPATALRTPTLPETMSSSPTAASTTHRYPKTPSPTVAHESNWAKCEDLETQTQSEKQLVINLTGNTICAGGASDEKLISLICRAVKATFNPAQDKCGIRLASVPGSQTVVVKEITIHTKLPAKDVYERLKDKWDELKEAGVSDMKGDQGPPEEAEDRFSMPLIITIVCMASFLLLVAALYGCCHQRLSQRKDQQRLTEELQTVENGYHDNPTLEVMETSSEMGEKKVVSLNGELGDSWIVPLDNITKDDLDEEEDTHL
In words: flow cytometry, titrated antibody on A172 cells, four-parameter fit. On the procedure:
(§1) Briefly, A172 cells were detached using cell dissociation solution (Sigma-C5914) and incubated with titrated purified antibodies in 96-well V-bottom plates. Antibody binding was detected using a goat anti-human IgG-Fc-Alexa 647 secondary antibody (Jackson 109-605-098) and the cells were analyzed on the Intellicyt high throughput flow cytometer (HTFC).
Table immediately above: Statistical data using Graphpad Prism analysis software representing the data presented above. Values were calculated using a variable slope (four parameters) non-linear regression analysis.

In test [4] the target is T1, human podocalyxin as displayed on tumor …. In words: KinExA, titrated A172 cells with constant antibody, free antibody measured. On the procedure: Example 13—Determination of Affinity of PODO447 and PODO83 for Cellular PODXL Antigens by Kinetic Exclusion Assay The concentration dependence of free anti-podo antibody as a function of A172 cell number was determined using a Sapidyne KinExA 3200. […] A172 cells and cell bound antibodies were then isolated by centrifugation. Supernatant containing free, unbound antibody was then transferred to a new tube. In the KinExA, a new column of PMMA beads coated with a Gt anti-IgG-Fc capture antibody is packed for each sample assayed. The supernatant containing free unbound antibody is passed over the column. The amount of free antibody captured on the PMMA beads was then measured using a Gt anti-IgG-Fc-A647. The concentration of free antibody over the entire 12 step dilution series was then used to determine the antibody Kd's using the standard Kd template in the KineExA Pro Software.
Table immediately above: Kinetic exclusion assay (KinExA) affinity determination of humanized and rabbit/human chimeric antibodies to Podocalyxin endogenously expressed on A172 cells. A172 cells were titrated and incubated with constant antibody concentrations and allowed to reach equilibrium with a 16 hour incubation. Free, unbound antibody in the supernatant was then captured on the KinExA 3200 using poly(methyl methacrylate) (PMMA) beads coated with goat anti-human IgG-Fc capture antibodies and detected with goat anti-human IgG-Fc-alexa 647 label.
A general note: In KinExA the mixture passes briefly over coated beads that capture the unbound partner.

Test [5] shares this target. In words: flow cytometry titration on A172 cells, goat anti-human IgG-Fc-Alexa 647. The protocol: as §1
The target of test [6] is WT Podocalyxin (on normal cells and tissues) (human) (UniProt O00592). In words: IHC, Normal Kidney.
For test [7], the target named is T1, human podocalyxin as displayed on tumor …. In words: flow cytometry, MDA.MB.231 Podo KD. On the procedure: (§2) Cells were cultured under continuous antibiotic selection with puromycin (4 µg/ml; Invitrogen, Burlington, ON) and G418 (lmg/ml; Calbiochem, Darmstadt, Germany). shRNA constructs were generously provided by Dr. John Wilkins (University of Manitoba, Winnipeg, MB) and the infections were performed by Michelle Turvey and Dr. Shaun McColl (University of Adelaide, Australia). 2.5×10^5 MIA PaCa-2 cells were seeded per well in a 6-well TC-Treated plate (Costar, cat#3516). After incubation overnight, cells were transfected with 10 nM siRNA following the guidelines of the Oligofectamine protocol (cat#12252-011, Invitrogen, Burlington, ON). Pre-Design and validated siRNA (PODXL siRNA, cat# s10770; Negative control No. 1 siRNA, cat#4390843) were obtained from Ambion (Thermo Fisher Scientific, Burlington, ON). Knock-downs were assessed by flow cytometry two days after transfection.
(§3) Sub-confluent cell lines were washed once with Ca^2+ and Mg^2+ free HBSS (Invitrogen, Carlsbad, Calif.) harvested with 0.25% Trypsin/EDTA (Invitrogen, Carlsbad, Calif.). Cells were quenched with normal growth media and centrifuged at 300×g for 5 minutes. Cells were washed once with FACS buffer (2% FBS, 2 mM EDTA, PBS, 0.05% NaAzide). Cells were blocked for 20 minutes at 4° C. in Blocking Buffer (2% rat serum, 2 µg/ml dilution of 2.4G2 (anti-CD16/CD32)) in a 96 well 'v' bottom plate. […]

Test [8] shares this target. In words: flow cytometry, MIA PaCa-2 PODXL siRNA. On the procedure:
as §2, §3

Test [9] concerns the target WT Podocalyxin (on normal cells and tissues) (human) (UniProt O00592). In words: IHC, Normal Cerebellum; Weak and Strong columns hold '-'.
Test [10] has as its target T1, human podocalyxin as displayed on tumor …. In words: KinExA kinetic exclusion assay, antigen: MDA-MB-231 Cells.

Consider Control Rb/HuIgG1 (antibody), for which the results for the Live cell GeoMean FL in [1] and in test [2] were 446 and 489, respectively.

Consider MsIgG2a (antibody), for which the Live cell GeoMean FL in test [1] was found to be 556; in test [2], 484. Also, the % Shifting (FL4) Live Cells with cPodo/CHO turned out to be 1%.

B1: Humanized Podo447 (humanized_podo447VH_hIgG1C with humanized_podo447VL6_hIgkC) (antibody, V domains shown)
VH: EVQLVESGGGLVQPGRSLRLSCTASGFSLSGYQMNWVRQAPGKGLEWVGYIWSDGGTDYTASVKGRFTISRDGSKSIAYLQMNSLKTEDTAVYYCAREGYWLGAFDPWGQGTSVTVSA
VL: AAQLTQSPSPLSASVGDRVTITCQSSQSVHHKNDLAWYQQKPGKAPKLLIYYTSTLASGVPSRFSGSGSGTDFTLTISSLQPEDFATYYCAGVYEGSSDNRAFGGGTKVEIKR
notes: The labels R0943_A046 and CDRD-0103-001 are tied to this molecule only by the word 'Humanized'; also called R0943_A046 (Humanized); CDRD-0103-001 (Humanized)
B1 registered a LogIC50 in [3] of 2.09. In [4], the Kd (in general, the equilibrium constant for the complex coming apart) was 0.0144 nM; the “Kd High” value amounted to 0.0459 nM; the “Kd Low” value worked out at 0.00459 nM. For the same molecule, the EC50 (read off the curve) (as a rule, the concentration giving half of the maximal effect) in [5] was about 0.1 µg/mL.

B2: Podo447 antibody, recombinant rabbit/human IgG1 chimera (antibody, V domains shown)
VH: QSLEESGGRLVTPGTPLTLTCTASGFSLSGYQMNWVRQAPGKGLEWIGYIWSDGGTDYASWAKGRFTISKTSSTTVDLKMTSLTTEDTATYFCAREGYWLGAFDPWGPGTLVTVSS
VL: AAVLTQTPSPVSAAVGATVSVSCQSSQSVHHKNDLAWFQQKPGQPPKLLIYYTSTLASGVPSRFKGSGSGTQFTLTISDLECDDAATYYCAGVYEGSSDNRAFGGGTEVVVKR
notes: also called anti-Podo
With B2, the IHC score Negative, cases of total in [6] is 98%; in [9], 0 of 10 cases. For the same molecule, the IHC score Weak, cases of total in [6] turned out to be 1.9%. In addition, the Live cell GeoMean FL in [1] came out at 6710; in test [2], 3970. Besides, the figures for the “decrease of binding on podocalyxin knockdown (fold)” value in test [7] and in test [8] were 2.5 X and 10 X, respectively. The figures for the Kd in [10] and in [4] were 0.189 nM and 0.00757 nM, respectively. The “Kd High” value in [10] worked out at 52.4 nM; in [4] it was 0.0249 nM. Moreover, the “Kd Low” value in test [10] is 0.0425 nM; in [4], 0.0023 nM. In test [3], the LogIC50 was 2.28. Further, the “EC50 (read off the curve)” value in [5] was about 0.2 µg/mL.
